The target of experiment [1] is T1, Peptide-2 (human, phosphothreonine 212, phosphothreonine 217 (tau 2N4R numbering); short chain biotin (SCBiot) and dPEG4 at the N-terminus; amide at the C-terminus).
T1 construct: also called pT212/pT217-tau peptide (Peptide-2)
In words: SPR ProteOn, peptide captured, Fab as analyte; range of n=2; upper end of n=2 range. As for the experimental part:
(§1) A subset of HFA-PT3 monoclonal antibody variants, selected based on biophysical characterization and ELISA binding to PHF, were analyzed by Surface Plasmon Resonance (SPR) with a ProteOn XPR36 for binding to the following phosphopeptides: pT212/pT217-tau peptide (Peptide-2, SEQ ID NO: 48) and pT212-tau peptide (Peptide-8, SEQ ID NO: 54). All experiments were performed at 25° C. using PBST, pH 7.4, (Bio-Rad Cat#176-2720) as both running buffer and sample dilution buffer.
(§2) Fab/peptide binding. Biotinylated peptide was captured on a neutravidin-coated NLC biosensor chip pre-conditioned with PBST, and Fab was flowed over the surface to measure kinetic parameters. Approximately 5-10 RU of peptide was captured on the chip surface by diluting peptide to 10 ng/mL in PBST and injecting over the flow channels at 30 μL/min for 100 s. Serial dilutions of PT3 Fab (1.1 nM to 90 nM) were injected at 60 μL/min for 3 minutes (association phase), followed by 300 s of buffer only (dissociation phase).
(§3) Data were double referenced by subtraction of the interspot response, and the curves generated by the buffer only injection. The chip surface was regenerated with 0.85% phosphoric acid, followed by PBST injection before the next antibody titration injection. Data processing and analysis were performed using instrument software. The data were fit using a simple Langmuir 1:1 binding model.

The target in experiment [2] is T2, PHF-tau (paired helical filament tau isolated from Alzheimer's disease brain) (human, UniProt P10636-8 2-441, limits assumed, hyper-phosphorylated, aggregated; sites not listed for the preparation).
T2 construct: also called enriched PHF-tau; ePHF-tau
T2 sequence (P10636 other isoform, or with tags, fused parts or gaps limits assumed): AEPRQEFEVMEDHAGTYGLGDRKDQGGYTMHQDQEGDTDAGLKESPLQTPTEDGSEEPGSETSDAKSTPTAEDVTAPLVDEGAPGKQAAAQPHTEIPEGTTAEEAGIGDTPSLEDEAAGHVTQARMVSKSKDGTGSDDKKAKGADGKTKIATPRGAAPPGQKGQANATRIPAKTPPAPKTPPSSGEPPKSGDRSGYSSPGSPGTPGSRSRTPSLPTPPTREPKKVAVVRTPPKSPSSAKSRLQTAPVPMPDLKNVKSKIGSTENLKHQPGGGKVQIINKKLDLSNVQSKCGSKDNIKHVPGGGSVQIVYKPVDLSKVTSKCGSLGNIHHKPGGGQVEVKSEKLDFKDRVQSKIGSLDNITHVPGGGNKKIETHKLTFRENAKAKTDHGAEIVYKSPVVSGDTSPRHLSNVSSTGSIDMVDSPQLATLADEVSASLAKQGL
Kind of experiment: SPR ProteOn, PHF-tau capture-coupled via HT7, 1:1 model. As for the experimental part: (§4) A subset of HFA-PT3 monoclonal antibodies was tested for binding to PHF-tau isolated from Alzheimer's disease brain. All interactions were studied at 25° C. using PBS pH 7.4, supplemented with 3 mM EDTA, and 0.005% Tween 20 as running or system buffer. HT7 (Pierce, catalog #MN1000), a mouse anti-tau antibody, was used as a positive control.
(§5) The interaction of anti-tau monoclonal antibodies with PHF-tau was analyzed by ProteOn using a biosensor surface prepared by capture-coupling PHF-tau using HT7 as the capture reagent. PHF-tau was prepared by 2-times centrifugation at 5000×g at 5° C. for 10 min; the supernatant from the second centrifugation was then diluted 1/40 in running buffer. To prepare the chip, HT7 was covalently immobilized to the surface of a GLC (ProteOn) sensor chip using the manufacturer's instructions for amine-coupling chemistry (˜5000 response units (RU)). The coupling buffer was 10 mM sodium acetate, pH 4.5. After HT7 immobilization, PHF-tau was injected and captured (˜300 RU) by HT7. After capture, PHF-tau was covalently immobilized to the sensor chip by activation of the chip using the manufacturer's instructions for amine-coupling chemistry. Remaining reactive sites were blocked by the injection of ethanolamine. After preparation and stabilization of the PHF-tau-modified surface and reference surface (containing no antigen), the anti-tau antibodies were diluted in the running buffer and injected in solution (0.12-75 nM in 5-fold dilutions). The association was monitored for 3 minutes (120 μL injected at 40 μL/min). The dissociation was monitored for 15 minutes. Regeneration of the sensor surface was performed using 10 mM Gly pH 2.0. The data for monoclonal antibodies were fit using a bivalent binding model where the apparent affinity (KD) was reported as the ratio of koff/kₒₙ. A Langmuir 1:1 binding model was used for kinetics analysis of Fabs.

The target of experiment [3] is T3, tau phospho-peptide of the direct ELISA of Example 11.
T3 construct: also called pT217 peptide; pT212/pT217 peptide
In words: direct ELISA on plate-coated tau phospho-peptide, Fabs. On the procedure:
(§6) Binding to tau phospho-peptide was analysed by ELISA where peptide (10 ng/mL) was directly coated to the plate overnight. […] After incubation with antibodies, plates were washed and 50 μL per well of HRPO labelled anti-Fab antibody (Jackson Immunoresearch laboratories) (diluted 1:10000 in blocking buffer). After another washing step detection was performed with “One step” TMB (Thermo Scientific) according to the manufacturers' instructions. Plates were analysed in EnVision® 2102 Multilabel Reader (Perkin Elmer, Waltham, Mass., USA). Binding curves were generated using GraphPad Prism7.0 software.

In experiment [4] the target is T1, Peptide-2. Kind of experiment: SPR ProteOn, peptide captured, Fab as analyte. As for the experimental part: as §1, §2, §3
For experiment [5], the target named is T3, tau phospho-peptide of the direct ELISA …. Kind of experiment: direct ELISA, peptide coated. As for the experimental part: as §6
Background: ELISA stands for enzyme-linked immunosorbent assay.

In experiment [6] the target is T2, PHF-tau (paired helical filament tau …). In words: SPR ProteOn, PHF-tau on chip.
In experiment [7] the target is T1, Peptide-2. In words: SPR ProteOn, peptide captured, Fab as analyte; range of n=2; lower end of n=2 range. On the procedure:
as §1, §2, §3

Experiment [8] addresses T2, PHF-tau (paired helical filament tau …). Kind of experiment: SPR ProteOn, PHF-tau capture-coupled via HT7, 1:1 model. On the procedure:
(§7) Affinity matured monoclonal antibodies were tested for binding to PHF-tau isolated from Alzheimer's disease brain.
(§8) A GLC sensor chip was covalently immobilized with a mouse anti-tau antibody, HT7 (ThermoFisher, catalog# MN1000) using the vendor recommended protocol for amine-coupling chemistry (˜5000 response units, RU). The coupling buffer was 10 mM, pH 4.5 sodium acetate. PHF-tau was prepared by 2-times centrifugation at 5000×g in 5° C. for 10 min. […] After capture-coupling, the surface was activated and deactivated to generate a homogenous PHF-tau surface for antibody binding studies. The anti-tau antibodies and their Fabs (prepared in running buffer, 0.024-75 nM at 5-fold dilutions) were injected at 50 μL/min over the PHF-tau surface to measure binding. The association and dissociation profiles were monitored for 4 minutes and 2 hours, respectively. After dissociation, the sensor chip was regenerated using multiple injections of 10 mM Glycine pH 2.0 and the running buffer. A reference surface (without any PHF-tau) was used to monitor non-specific binding of the injected mAbs or Fabs. HT7 antibody was used as a positive control. The binding sensorgrams for mAbs were fit using a bivalent binding model where the apparent affinity or avidity-driven binding (KD) was reported as the ratio of off-rate and on-rate (koff/kₒₙ). A 1:1 Langmuir binding model was used for kinetics analysis of Fabs.
The source holds these as a separate data set.

The target in experiment [9] is T1, Peptide-2. In words: SPR ProteOn, peptide captured, Fab as analyte; range of n=2. On the procedure: as §1, §2, §3
Experiment [10] deals with T1, Peptide-2. Kind of experiment: SPR ProteOn, mAb captured, peptide as analyte. As for the experimental part: as §1
(§9) Monoclonal antibody/Peptide binding. […] Anti-human IgG was amine-coupled to the chip surface using EDC/NHS, then washed with ethanolamine. Antibodies were diluted to 2 μg/mL in PBST and injected on the surface for 5 min at 30 μL/min to achieve a maximum density of 900-1000 RU. Peptides were injected as analytes at 60 μL/min for 3 min, followed by 5 min dissociation. Peptide-2 was diluted in PBST to generate a three-fold concentration series (0-30 nM) and measured in duplicate. Single measurements of monoclonal antibody binding to Peptide-8 were recorded over the concentration range 0-100 nM.
as §3

The target in experiment [11] is T1, Peptide-2. In words: SPR ProteOn, mAb captured, peptide as analyte; range of n=2; lower end of n=2 range. On the procedure: as §1, §9
Data were double referenced by subtraction of the interspot response, and the curves generated by the buffer only injection. The chip surface was regenerated with 0.85% phosphoric acid, followed by PBST injection before the next antibody titration injection. Data processing and analysis were performed using instrument software. […]

Experiment [12] addresses T2, PHF-tau (paired helical filament tau …). Kind of experiment: SPR ProteOn, PHF-tau capture-coupled via HT7, bivalent model. On the procedure:
as §4, §5

Experiment [13] concerns the target T1, Peptide-2. Kind of experiment: SPR ProteOn, mAb captured, peptide as analyte; range of n=2. On the procedure: as §1, §9, §3
Experiment [14] deals with T1, Peptide-2. In words: SPR ProteOn, mAb captured, peptide as analyte; range of n=2; upper end of n=2 range. On the procedure:
as §1, §9, §3

Experiment [15] addresses T2, PHF-tau (paired helical filament tau …). In words: SPR ProteOn, PHF-tau capture-coupled via HT7, 1:1 model; lower end of range. On the procedure: as §7, §8
Experiment [16] has the same target. Kind of experiment: SPR ProteOn, PHF-tau capture-coupled via HT7, 1:1 model; upper end of range. As for the experimental part:
as §7, §8

Experiment [17] has the same target. In words: SPR ProteOn, PHF-tau.

These results are taken from US20230047413A1 (Janssen / Centocor, published 2023).

Numbering of substitutions follows the chain as printed.

T1 sequence (peptide, as listed by the source): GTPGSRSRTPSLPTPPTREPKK

B1: B324 (Fab of B296) (Fab, V domains shown)
VH: QVQLVESGGGVVQPGRSLRLSCAASGFTFSSYAMSWVRQAPGKGLEWVASISKGGNTYYADSVKGRFTISRDNSKNTLYLQMNSLRAEDTAVYYCARGWGDYGWFAYWGQVTLVTVSS
VL: DIQMTQSPSSLSASVGDRVTITCKASQDINRYLNWFQQKPGKAPKSLIYRANRLLDGVPSRFSGSGSGTDFTLTISSLQPEDFATYYCLQYDEFPLTFGQGTKLEIK
notes: also called M324; B296 Fab
The koff is a measure of how fast the partners let go of each other. Usually kon stands for the second-order rate constant of association. The low end stands for slow association, the high end for fast association. What is called EC50 (read off the curve) is the concentration at which the effect is half-maximal. Low values mean a more potent agent, high ones a less potent agent. What is called EC50 is the concentration needed to bring the measured effect to its halfway point. A higher EC50 goes with lower potency in that assay. Consider B1, for which the koff in experiment [1] is 0.000186 s⁻¹; in experiment [2], 0.000136 s⁻¹; in [4] it was 0.000174 s⁻¹; in [7], 0.000161 s⁻¹; in [8] it was 9.03e-05 s⁻¹. Also, the kon came to 793000 M⁻¹ s⁻¹ in experiment [1]; 816000 M⁻¹ s⁻¹ in experiment [2]; 610000 M⁻¹ s⁻¹ in [4]; 1.43e+06 M⁻¹ s⁻¹ in [8]; 427000 M⁻¹ s⁻¹ in experiment [9]. For the same molecule, the Kd in experiment [2] is 0.167 nM; in [4] it was 0.305 nM; in [8] it was 0.0632 nM; in experiment [9] it was 0.234 to 0.376 nM. Moreover, the concentration giving a half-maximal response (EC50 (read off the curve)) in [3] was roughly 0.5 nM. Besides, in experiment [5], a half-maximal effect (EC50) was put at 0.341 nM. Moreover, the “fold slower off-rate than B326” value in [6] was found to be 1.7 fold. Moreover, the “fold stronger affinity (KD) than B326” value in [6] worked out at 1.3 fold. In experiment [6], the “fold weaker KD than the mouse PT3 parent Fab B187” value came out at 2.5 fold.

B2: B235 (antibody, human IgG1, V domains shown)
VH: B1 VH with Q1E, V5L, V11L, R16G, A49S, R97K
VL: B1 VL
notes: Humanized (HFA) PT3 variant, human IgG1/kappa; also called VH91/VL77
For B2, the Kd in [10] is 1.79 nM; in [12], 0.165 nM; in experiment [13], 1.71 to 1.86 nM. The koff is 0.00569 s⁻¹ in experiment [10], 0.00528 s⁻¹ in experiment [11], 8.06e-05 s⁻¹ in [12] and 0.0061 s⁻¹ in [14]. For the same molecule, the kon in experiment [10] turned out to be 3.21e+06 M⁻¹ s⁻¹; in experiment [12] it was 490000 M⁻¹ s⁻¹; in [13] it was 2.84e+06 M⁻¹ s⁻¹; in experiment [14], 3.58e+06 M⁻¹ s⁻¹.

B3: B330 (Fab of B711) (Fab, V domains shown)
VH: B1 VH with S30T, S52T, D101I
VL: B1 VL with Y32W
notes: the Fab's constant parts and tag are not described; also called M330; M333 (the Fab of B711)
B3: the Kd in experiment [15] was determined as 0.0153 nM; in [16] it was 0.0158 nM; in experiment [8] it was 0.0156 nM. The koff in experiment [15] was 6.94e-05 s⁻¹; in [16], 7.36e-05 s⁻¹; in experiment [8], 7.15e-05 s⁻¹. Further, the values for the kon in experiment [15], in experiment [16] and in experiment [8] were 4.53e+06 M⁻¹ s⁻¹, 4.66e+06 M⁻¹ s⁻¹ and 4.6e+06 M⁻¹ s⁻¹, respectively. For the same molecule, the “EC50 (read off the curve)” value in experiment [3] is roughly 0.2 nM. Further, in experiment [5], the EC50 worked out at 0.107 nM.

B4: PT1 mAb (hyb) (antibody, V domains shown)
VH: QVQLQQSGTELMKPGASVKISCKATGYTFSSSWMGWVKQRPGHGLEWIGDILPGSGGTNYNERFKGKASFTAETSSNTAYMQLSSLTSEDSAVYYCVRSYYDYDRFANWGQGTLVTVSA
VL: DIVMTQAAPSVPVTPGESVSISCRSSESLLHSNGNTYLYWFLQRPGQSPQLLIYRMSNLASGVPDRFSGSGSGTAFTLRISRVEAEDVGVYYCMQYLEYPLTFGAGTKLELK
In experiment [17], B4 returned a Kd of 0.322 nM, a koff of 6.47e-05 s⁻¹ and a kon of 201000 M⁻¹ s⁻¹.
